Experimental data from patent publication US20220048993A1 (published 2022).
Each block holds one binder with its values, some of them ahead of it.

How the values were obtained:
[1] = target: T1, recombinant cynomolgus E11 protein (cynomolgus monkey); assay: SPR, mIgG2a captured, monovalent
T1 chain: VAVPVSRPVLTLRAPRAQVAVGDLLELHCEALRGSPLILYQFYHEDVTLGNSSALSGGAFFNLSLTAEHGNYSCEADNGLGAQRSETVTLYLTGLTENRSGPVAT

[2] = target: T1, recombinant cynomolgus E11 protein; assay: SPR, mIgG2a captured, monovalent
[3] = target: T2, soluble cynomolgus FcRH5 protein fragment (cynomolgus monkey); assay: SPR, hIgG capture, 1:1 model
T2 chain: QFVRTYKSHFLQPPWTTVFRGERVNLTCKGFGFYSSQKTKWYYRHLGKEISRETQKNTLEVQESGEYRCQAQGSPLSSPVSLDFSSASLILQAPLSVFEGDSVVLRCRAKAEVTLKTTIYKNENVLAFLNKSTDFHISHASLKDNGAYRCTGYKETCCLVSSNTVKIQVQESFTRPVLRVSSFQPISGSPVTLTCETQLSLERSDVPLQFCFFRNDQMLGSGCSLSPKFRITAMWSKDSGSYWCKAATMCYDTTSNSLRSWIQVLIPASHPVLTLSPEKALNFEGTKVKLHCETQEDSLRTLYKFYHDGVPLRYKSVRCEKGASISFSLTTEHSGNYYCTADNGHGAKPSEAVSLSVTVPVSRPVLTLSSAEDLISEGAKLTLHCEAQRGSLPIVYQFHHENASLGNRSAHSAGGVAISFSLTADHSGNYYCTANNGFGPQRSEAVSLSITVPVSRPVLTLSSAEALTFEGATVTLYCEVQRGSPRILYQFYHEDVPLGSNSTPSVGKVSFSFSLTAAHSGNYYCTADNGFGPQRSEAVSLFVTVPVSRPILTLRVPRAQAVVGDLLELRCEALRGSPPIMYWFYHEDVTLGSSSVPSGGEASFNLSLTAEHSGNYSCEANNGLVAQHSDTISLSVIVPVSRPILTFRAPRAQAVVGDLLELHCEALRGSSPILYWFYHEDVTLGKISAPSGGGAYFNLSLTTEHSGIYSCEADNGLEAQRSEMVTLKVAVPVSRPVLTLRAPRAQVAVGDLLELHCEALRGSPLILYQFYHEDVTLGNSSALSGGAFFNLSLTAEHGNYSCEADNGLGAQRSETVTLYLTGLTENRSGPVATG

[4] = target: T3, cynomolgus monkey FcRH5, full-length (cynomolgus monkey); assay: FACS, SVT2 cells, TDB 3 µg/ml
T3 construct: also called cyno FcRH5; Cynomolgus FcRH5
T3 chain: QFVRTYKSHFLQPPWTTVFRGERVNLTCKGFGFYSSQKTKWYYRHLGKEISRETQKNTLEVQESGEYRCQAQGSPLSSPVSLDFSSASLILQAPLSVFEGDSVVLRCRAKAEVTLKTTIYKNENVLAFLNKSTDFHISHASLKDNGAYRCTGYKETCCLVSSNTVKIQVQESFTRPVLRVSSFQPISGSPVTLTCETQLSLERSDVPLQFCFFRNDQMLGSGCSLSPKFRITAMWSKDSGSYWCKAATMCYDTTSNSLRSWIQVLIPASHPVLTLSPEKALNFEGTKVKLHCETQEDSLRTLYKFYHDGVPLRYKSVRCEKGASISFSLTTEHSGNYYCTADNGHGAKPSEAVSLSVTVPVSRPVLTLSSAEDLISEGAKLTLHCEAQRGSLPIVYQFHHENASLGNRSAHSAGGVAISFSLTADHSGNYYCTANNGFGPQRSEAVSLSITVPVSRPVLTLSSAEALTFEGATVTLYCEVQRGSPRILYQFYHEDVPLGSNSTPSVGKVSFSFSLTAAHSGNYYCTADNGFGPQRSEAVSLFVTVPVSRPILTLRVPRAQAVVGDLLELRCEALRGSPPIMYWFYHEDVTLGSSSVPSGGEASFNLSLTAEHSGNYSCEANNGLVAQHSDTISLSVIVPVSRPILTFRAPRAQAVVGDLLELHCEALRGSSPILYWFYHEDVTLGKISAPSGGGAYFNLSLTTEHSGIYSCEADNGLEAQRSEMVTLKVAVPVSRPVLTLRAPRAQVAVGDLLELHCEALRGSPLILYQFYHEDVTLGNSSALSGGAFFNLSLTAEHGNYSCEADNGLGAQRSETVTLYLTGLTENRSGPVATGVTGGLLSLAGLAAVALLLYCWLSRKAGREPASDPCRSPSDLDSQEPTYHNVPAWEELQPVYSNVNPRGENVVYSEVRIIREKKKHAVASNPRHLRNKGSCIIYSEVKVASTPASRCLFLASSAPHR
Experimental: Human FcRH5, cyno FcRH5, human FcRH1, FcRH2, FcRH3, and FcRH4 transfected mouse SVT2 cells were used to test binding and cross-reactivity of FcRH5 TDBs. The method was carried out as follows. Cultured SVT2 cells were lifted using non-enzyme cell dissociation buffer (Sigma, #C5914). 1×10⁵ cells were suspended in 100 μL and incubated with FcRH5 TDBs at 3 μg/ml. Cells were then washed with FACS buffer (PBS, 1% BSA, 2 mM EDTA) and incubated with goat-anti-human Fc PE (Jackson Immunoresearch, #109-116-170) at a 1:100 dilution. Cells were washed twice with FACS buffer before flow cytometry analysis was carried out on a FACSCalibur.

[5] = target: T2, soluble cynomolgus FcRH5 protein …; assay: BIACORE (FIG. 15)
human FcRH5, full-length = target: T4, human FcRH5, full-length (human, UniProt Q96RD9 16-977); assay: cell-based or functional assay
T4 sequence: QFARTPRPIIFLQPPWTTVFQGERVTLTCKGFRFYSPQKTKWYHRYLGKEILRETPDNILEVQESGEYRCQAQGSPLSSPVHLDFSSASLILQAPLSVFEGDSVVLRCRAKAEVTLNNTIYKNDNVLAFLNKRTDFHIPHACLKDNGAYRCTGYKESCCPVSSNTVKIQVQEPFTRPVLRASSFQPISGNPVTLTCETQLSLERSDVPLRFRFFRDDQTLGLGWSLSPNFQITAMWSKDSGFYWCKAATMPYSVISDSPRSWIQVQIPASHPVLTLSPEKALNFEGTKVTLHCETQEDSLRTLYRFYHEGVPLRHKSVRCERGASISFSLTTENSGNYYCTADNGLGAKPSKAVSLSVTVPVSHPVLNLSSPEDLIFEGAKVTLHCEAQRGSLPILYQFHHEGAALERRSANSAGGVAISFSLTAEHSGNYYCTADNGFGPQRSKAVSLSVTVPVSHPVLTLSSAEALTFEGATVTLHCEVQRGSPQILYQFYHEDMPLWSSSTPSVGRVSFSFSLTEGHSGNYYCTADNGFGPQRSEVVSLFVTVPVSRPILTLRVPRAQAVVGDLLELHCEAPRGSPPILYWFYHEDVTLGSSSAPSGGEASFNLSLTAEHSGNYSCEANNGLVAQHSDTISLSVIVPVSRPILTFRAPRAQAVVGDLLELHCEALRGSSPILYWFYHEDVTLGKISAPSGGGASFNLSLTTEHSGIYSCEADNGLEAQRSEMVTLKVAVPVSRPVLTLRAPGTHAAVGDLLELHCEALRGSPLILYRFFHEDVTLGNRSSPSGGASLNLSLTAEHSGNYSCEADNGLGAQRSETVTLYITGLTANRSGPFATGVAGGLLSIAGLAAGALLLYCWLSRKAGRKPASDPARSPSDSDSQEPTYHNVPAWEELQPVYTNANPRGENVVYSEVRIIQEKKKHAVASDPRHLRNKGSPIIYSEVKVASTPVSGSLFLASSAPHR

[6] = target: T3, cynomolgus monkey FcRH5, full-length; assay: flow cytometry, SVT2-cyno FcRH5 cells
[7] = target: T2, soluble cynomolgus FcRH5 protein …; assay: BIACORE, hIgG capture, 1:1 model, monovalent

B1: 15G8 (antibody, mouse IgG2a, V domains shown)
VH: EVQLQQSGPELVKPGASVKMSCKASGYTFTNYVIHWMKQKPGQGLEWIGYISPYNDYTKYNEKFEGKATLTSDKSSNTAYMELSSLTSEDSAVYYCARRDYYGSSDYWGQGTTLTVSS
VL: QIVLTQSPAIMSASPGEKVTMTCSASSSVDYMHWYQQKSGTSPKKWIYDTSKLASGVPARFSGSGSGTSYSLTIGSMEAEDAATYYCQQWSSNPPTFGGGTKLEIK
notes: mouse mAb, Campaign C; recombinant murine IgG2a for BIACORE; also called mAb 15G8
- KD difference between human and cynomolgus E11 domains [1]: ~20 fold
- Kd [2]: 9.1 nM

B2: 1G7.v1.4/38E4.v1 TDB (bispecific antibody, V domains shown)
VH 1: EVQLVESGPGLVKPSETLSLTCTVSGFSLTRFGVHWVRQPPGKGLEWLGVIWRGGSTDYNAAFMSRLTISKDNSKNQVSLKLSSVTAADTAVYYCSNHYYGSSDYALDNWGQGTLVTVSS
VL 1: DIQMTQSPSSLSASVGDRVTITCKASQDVRNLVVWFQQKPGKAPKLLIYSGSYRYSGVPSRFSGSGSGTDFTLTISSLQPEDFATYYCQQHYSPPYTFGQGTKVEIK
VH 2: EVQLVQSGAEVKKPGASVKVSCKASGFTFTSYYIHWVRQAPGQGLEWIGWIYPENDNTKYNEKFKDRVTITADTSTSTAYLELSSLRSEDTAVYYCARDGYSRYYFDYWGQGTLVTVSS
VL 2: DIVMTQSPDSLAVSLGERATINCKSSQSLLNSRTRKNYLAWYQQKPGQSPKLLIYWTSTRKSGVPDRFSGSGSGTDFTLTISSLQAEDVAVYYCKQSFILRTFGQGTKVEIK
notes: knob-into-hole full-length TDB; also called 1G7.v1.4 TDB
- Kd [3]: 6.3 nM
- koff [3]: 0.0008 s⁻¹
- kon [3]: 100000 M⁻¹ s⁻¹
- binding result [4]: binds

B3: 1G7.v85/38E4.v1 TDB (bispecific antibody, V domains shown)
VH 1: EVQLVESGPGLVKPSETLSLTCTVSGFSLTRFGVHWVRQPPGKGLEWLGVIWRGGSTDYNAAFVSRLTISKDNSKNQVSLKLSSVTAADTAVYYCSNHYYGSSDYALDNWGQGTLVTVSS
VL 1: DIQMTQSPSSLSASVGDRVTITCKASQDVRNLVVWFQQKPGKAPKLLIYSGSYRYSGVPSRFSGSGSGTDFTLTISSLQPEDFATYYCQQHYSPPYTFGQGTKVEIK
VH 2: EVQLVQSGAEVKKPGASVKVSCKASGFTFTSYYIHWVRQAPGQGLEWIGWIYPENDNTKYNEKFKDRVTITADTSTSTAYLELSSLRSEDTAVYYCARDGYSRYYFDYWGQGTLVTVSS
VL 2: DIVMTQSPDSLAVSLGERATINCKSSQSLLNSRTRKNYLAWYQQKPGQSPKLLIYWTSTRKSGVPDRFSGSGSGTDFTLTISSLQAEDVAVYYCKQSFILRTFGQGTKVEIK
notes: knob-into-hole full-length TDB; also called 1G7.v85 TDB; FcRH5 TDB
- Kd [5]: 7.8 nM
- killing of MOLP-2 cells, EC50 (human FcRH5, full-length): 0.058 nM
- killing of SVT2-FcRH5 cells, IC50, in DMSO (human FcRH5, full-length): 0.006 nM
- killing of SVT2-FcRH5 cells, IC50, in buffer (human FcRH5, full-length): 0.007 nM
- killing of SVT2-FcRH5 cells, IC50, with 0.1 µM dexamethasone (human FcRH5, full-length): 0.016 nM
- killing of SVT2-FcRH5 cells, IC50, with 1 µM dexamethasone (human FcRH5, full-length): 0.025 nM
- killing of human bone marrow plasma cells, EC50 (human FcRH5, full-length): 0.085 to 0.18 nM
- Kd [3]: 6.8 nM
- koff [3]: 0.0008 s⁻¹
- kon [3]: 100000 M⁻¹ s⁻¹
- binding result [6]: binds
- Kd [7]: 6.76 nM

B7: 17B1 (antibody, mouse IgG2a, V domains shown)
VH: QVQLQQSGPELVRPGVSVKISCKGSGYTFTHYAMHWVKQSHTKSLEWIGMISSSSGNTNFNQKFMDKATMTVDKSSTTAYLELARLTFGDSAIYYCARWSYYALFDYWGQGTTVTVSS
VL: ENVLTQSPAIMSASPGEKVTMTCSADSSVDYIHWYQQKSNTSPKLWIYDTSKLASGVPGRFSGSGSGNSYSLTISSMEAEDFATYYCFQGSGYPLTFGSGTKLELK
notes: mouse mAb, Campaign C; recombinant murine IgG2a for BIACORE
- Kd [2]: 27 nM

Next, values leading:

- Kd [3]: 7.2 nM
- koff [3]: 0.001 s⁻¹
- kon [3]: 100000 M⁻¹ s⁻¹
B4: hu1G7.v85 (hIgG1) (antibody, V domains shown)
VH: EVQLVESGPGLVKPSETLSLTCTVSGFSLTRFGVHWVRQPPGKGLEWLGVIWRGGSTDYNAAFVSRLTISKDNSKNQVSLKLSSVTAADTAVYYCSNHYYGSSDYALDNWGQGTLVTVSS
VL: DIQMTQSPSSLSASVGDRVTITCKASQDVRNLVVWFQQKPGKAPKLLIYSGSYRYSGVPSRFSGSGSGTDFTLTISSLQPEDFATYYCQQHYSPPYTFGQGTKVEIK
notes: bivalent human IgG1; also called hu1G7.v1.4.M64V

- Kd [5]: 8.1 nM
B5: hu1G7.v93/38E4.v1 TDB (bispecific antibody, V domains shown)
VH 1: EVQLVESGPGLVKPSETLSLTCTVSGFSTTRFGVHWVRQPPGKGLEWLGVIWRGGSTDYNAAFVSRLTISKDNSKNQVSLKLSSVTAADTAVYYCSNHYYGSPDYALDNWGQGTLVTVSS
VL 1: DIQMTQSPSSLSASVGDRVTITCKASQDVSNLVVWFQQKPGKAPKLLIYSGSYRYSGVPSRFSGSGSGTDFTLTISSLQPEDFATYYCQQHYSPPYTFGQGTKVEIK
VH 2: EVQLVQSGAEVKKPGASVKVSCKASGFTFTSYYIHWVRQAPGQGLEWIGWIYPENDNTKYNEKFKDRVTITADTSTSTAYLELSSLRSEDTAVYYCARDGYSRYYFDYWGQGTLVTVSS
VL 2: DIVMTQSPDSLAVSLGERATINCKSSQSLLNSRTRKNYLAWYQQKPGQSPKLLIYWTSTRKSGVPDRFSGSGSGTDFTLTISSLQAEDVAVYYCKQSFILRTFGQGTKVEIK
notes: knob-into-hole full-length TDB; also called 1G7.v93 TDB

- Kd [3]: 7.7 nM
- koff [3]: 0.001 s⁻¹
- kon [3]: 100000 M⁻¹ s⁻¹
B6: hu1G7.v1.4 (hIgG1) (antibody, V domains shown)
VH: EVQLVESGPGLVKPSETLSLTCTVSGFSLTRFGVHWVRQPPGKGLEWLGVIWRGGSTDYNAAFMSRLTISKDNSKNQVSLKLSSVTAADTAVYYCSNHYYGSSDYALDNWGQGTLVTVSS
VL: DIQMTQSPSSLSASVGDRVTITCKASQDVRNLVVWFQQKPGKAPKLLIYSGSYRYSGVPSRFSGSGSGTDFTLTISSLQPEDFATYYCQQHYSPPYTFGQGTKVEIK
notes: human IgG1
